{
  "source": "patent US7531333B2",
  "about": "“Process for producing isoprenoid compounds by microorganisms and a method for screening compounds with antibiotic or weeding activity” (Kyowa Hakko Kogyo Co., Ltd., priority 1998, dated 2009)",
  "proteins": {"B1": {"name": "1-deoxy-D-xylulose 5-phosphate reductoisomerase (Escherichia coli K-12) (protein)", "chain": "MKQLTILGSTGSIGCSTLDVVRHNPEHFRVVALVAGKNVTRMVEQCLEFSPRYAVMDDEASAKLLKTMLQQQGSRTEVLSGQQAACDMAALEDVDQVMAAIVGAAGLLPTLAAIRAGKTILLANKESLVTCGRLFMDAVKQSKAQLLPVDSEHNAIFQSLPQPIQHNLGYADLEQNGVVSILLTGSGGPFRETPLRDLATMTPDQACRHPNWSMGRKISVDSATMMNKGLEYIEARWLFNASASQMEVLIHPQSVIHSMVRYQDGSVLAQLGEPDMVRQLPTPWAWPNRVNSGVKPLDFCKLSALTFAAPDYDRYPCLKLAMEAFEQGQAATTALNAANEITVAAFLAQQIRFTDIAALNLSVLEKMDMREPQCVDDVLSVDANAREVARKEVMRLAS", "notes": "made in house; host or cells: E. coli M15/pREP4"}},
  "substrate": "CC(=O)[C@@H](O)[C@H](O)COP(=O)(O)O",
  "assay": "Enzymatic activity of yaeM gene product (NADPH decrease, absorbance at 340 nm)",
  "format": "biochemical, E. coli",
  "details": "other: in the presence of MnCl2; pH 7.5; 37.0 °C",
  "description": "0.3 mol/l of 1-deoxy-D-xylulose 5-phosphate (final concentration) synthesized as described above was added to 1 ml of a reaction solution containing 100 mol/l Tris-hydrochloric acid (pH 7.5), 1 mol/l MmCl2, 0.3 mol/l NADPH and yaeM gene product obtained in Example 8 (2) ? , and then incubated at 37° C.\nThe enzymological characteristics of 1-deoxy-D-xylulose 5-phosphate reductoisomerase were examined using 1 ml of the reaction system as described in Example 8 (2) ? . Here, 1 unit is defined as the activity to oxidize 1 mmol of NADPH per a minute.",
  "data": [
    {"protein": "B1", "values": [
      {"measurement": "Km", "value": 249, "unit": "µM"}
    ]}
  ]
}
